Laboratory results reported in the supplement of paper PMC10724198.
± gives the standard deviation of the averaged measurements.

These sequences were tested on Saccharomyces cerevisiae (assay: protein stability index of tFT-peptide fusion (C-terminal peptide) (PSI (0-1 scale)); higher = more stable (slower turnover)). Details: genetic background: wild type; temperature: 30 C.
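Also: PSI is a weighted mean of sequencing reads over stability bins, variants kept only with over 10 reads, mCherry proximal and sfGFP distal, peptide attached via GGGS linker.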

| Sequence | protein stability index |
| --- | --- |
| TTPKLQPAPAVP | 0.691 ± 0.059 |
| TTRKMGTRAPSL | 0.647 ± 0.095 |
| TTRPTRGRPSSG | 0.682 ± 0.058 |
| TTSDSVVFWTLH | 0.719 ± 0.0074 |
| TTSGCARLSHMV | 0.709 ± 0.086 |
| TTSPRNMIIYYR | 0.627 ± 0.037 |
| TTYFLASSEWAG | 0.7739 ± 0.003 |
| TVGSPTPRSSAP | 0.707 ± 0.0098 |
| TVLRPVLCCFFV | 0.698 ± 0.015 |
| TVLSSQKPNNDR | 0.652 ± 0.023 |
| TVPESGSIGERK | 0.672 ± 0.03 |
| TVPGTARGQRPP | 0.629 ± 0.03 |
| TVRFTHQRNTVK | 0.689 ± 0.037 |
| TVRIGKYTGNGV | 0.738 ± 0.017 |
| TVSAPLFFPLNW | 0.663 ± 0.034 |
| TVTSTLKKHKRG | 0.669 ± 0.034 |
| TVYTPGVFVKTV | 0.562 ± 0.044 |
| TWIGRLGAGLPF | 0.779 ± 0.074 |
| TWSLYFSCRLFW | 0.54 ± 0.055 |
| TWVVPSASWLVF | 0.598 ± 0.009 |
| TYGPSLPVHAVT | 0.686 ± 0.012 |
| TYPMGVVLVESG | 0.498 ± 0.011 |
| TYQRTHKTATQF | 0.681 ± 0.073 |

| Sequence | protein stability index |
| --- | --- |
| TYRLPLLAPAPR | 0.688 ± 0.0097 |
| TYSCLKIVIPRT | 0.664 ± 0.018 |
| VAAASPLFSRID | 0.712 ± 0.014 |
| VADTLVCRGPMA | 0.718 ± 0.023 |
| VALEWGAVRVEG | 0.569 ± 0.088 |
| VALPVGQKLRTR | 0.633 ± 0.029 |
| VAPLTPPPSLPF | 0.671 ± 0.014 |
| VAQKARSVRFSI | 0.722 ± 0.1 |
| VARPSGQRVRHA | 0.656 ± 0.085 |
| VARVVGGVGGGW | 0.6553 ± 0.006 |
| VASGLVLFSGGV | 0.655 ± 0.0076 |
| VASGTLGWWVSA | 0.712 ± 0.018 |
| VAVGAGAGAMGL | 0.656 ± 0.0094 |
| VAYAGIRHDIPQ | 0.68 ± 0.081 |
| VCCMFTAFGVCG | 0.604 ± 0.022 |
| VCGGRQVGWGGW | 0.684 ± 0.045 |
| VCGLTLSVCTFG | 0.567 ± 0.0068 |
| VCKGGRIEYGLQ | 0.666 ± 0.037 |
| VCLCFWSVGSWG | 0.543 ± 0.011 |
| VCLCGGLGWVLF | 0.634 ± 0.029 |
| VCVACLRYPTFS | 0.6767 ± 0.0031 |
| VCWFMWSSVYGE | 0.527 ± 0.051 |
| VDCEECSFQFQM | 0.586 ± 0.15 |

| Sequence | protein stability index |
| --- | --- |
| VDCGPLSIEGGR | 0.649 ± 0.018 |
| VDLLGWVSESRC | 0.743 ± 0.089 |
| VDREGFTVLGRV | 0.657 ± 0.021 |
| VDSLETDVLKYL | 0.665 ± 0.011 |
| VDSLFGSRVLRL | 0.727 ± 0.097 |
| VEDGQGEYRRWV | 0.606 ± 0.049 |
| VEGINSQERLGV | 0.724 ± 0.07 |
| VEHHSKQIEKGR | 0.681 ± 0.053 |
| VELCLREKQIQL | 0.6749 ± 0.0039 |
| VELFSYGHHCRV | 0.658 ± 0.011 |
| VELSVVHMGHTA | 0.722 ± 0.0073 |
| VESRVVGGCGDW | 0.625 ± 0.03 |
| VEVGAWMVGCSE | 0.6113 ± 0.0012 |
| VEWCARGRVRRA | 0.757 ± 0.045 |
| VEWLQLERDPLV | 0.741 ± 0.033 |
| VEYGRLPRGEEG | 0.645 ± 0.13 |
| VFADHPSMHILS | 0.72 ± 0.021 |
| VFAGGCRLYCFR | 0.624 ± 0.063 |
| VFALSSVAIRRS | 0.64 ± 0.032 |
| VFAWFSGGARLT | 0.717 ± 0.0076 |
| VFCFGVRSVFLR | 0.54 ± 0.053 |
| VFCLGTRSWGLF | 0.6997 ± 0.0042 |
| VFFCALCRLWLG | 0.5 ± 0.029 |

| Sequence | protein stability index |
| --- | --- |
| VFGGSLICVFRV | 0.567 ± 0.025 |
| VFLASFLVCPIS | 0.662 ± 0.057 |
| VFLSLLYWSPIG | 0.643 ± 0.038 |
| VFLTLDVFPSSP | 0.647 ± 0.17 |
| VFPPPLPVRRCP | 0.6551 ± 0.0031 |
| VFPRVFGFGVCI | 0.716 ± 0.054 |
| VFQRFLLFTISP | 0.61 ± 0.014 |
| VFRSGGNQDIKV | 0.648 ± 0.015 |
| VFSAVIFFDCVQ | 0.629 ± 0.014 |
| VFSGGTVRWVGG | 0.702 ± 0.023 |
| VFWVFDGFEGFI | 0.825 ± 0.022 |
| VGAGGAWSGCGP | 0.675 ± 0.046 |
| VGAVRVAVGVGG | 0.566 ± 0.0096 |
| VGAWGCGMWVVG | 0.645 ± 0.024 |
| VGCWATGVGGPS | 0.706 ± 0.038 |
| VGDGLGGGGQGG | 0.664 ± 0.056 |
| VGDGQVWGGQGG | 0.669 ± 0.063 |
| VGEGLGWGGQGG | 0.712 ± 0.062 |
| VGERVSRRIQTR | 0.699 ± 0.052 |
| VGESGEGVVMGE | 0.677 ± 0.08 |
| VGFVYLTSAQVW | 0.527 ± 0.012 |
| VGGAAVVAGGGV | 0.695 ± 0.031 |
| VGGACGLSGGLV | 0.652 ± 0.062 |

| Sequence | protein stability index |
| --- | --- |
| VGGAVGAGGGGG | 0.649 ± 0.032 |
| VGGAVVWVGLVR | 0.55 ± 0.031 |
| VGGEGGLGVRPR | 0.662 ± 0.033 |
| VGGEGVGVGGEV | 0.616 ± 0.018 |
| VGGFVRGRVWCS | 0.696 ± 0.012 |
| VGGGFSSVVWLW | 0.658 ± 0.043 |
| VGGGGGVSLGGR | 0.655 ± 0.087 |
| VGGLAFSTSSIW | 0.809 ± 0.11 |
| VGGMGAEGRGGK | 0.721 ± 0.009 |
| VGGRGLVWVWGG | 0.631 ± 0.059 |
| VGGSERVWVKSL | 0.537 ± 0.043 |
| VGGVWVDVMGFC | 0.793 ± 0.16 |
| VGILHCELVDVS | 0.735 ± 0.17 |
| VGIPKEADKGGF | 0.704 ± 0.035 |
| VGLGVLWVMGKV | 0.667 ± 0.082 |
| VGLTNSHTHVRR | 0.767 ± 0.019 |
| VGNSLRCRGGWR | 0.628 ± 0.069 |
| VGPFSSSRIGTS | 0.6003 ± 0.0019 |
| VGPGVLVLGVGA | 0.68 ± 0.035 |
| VGPRFAYLDVAA | 0.5644 ± 0.0031 |
| VGPSGLIRCSFC | 0.712 ± 0.029 |
| VGRAGMPGSAES | 0.66 ± 0.022 |
| VGRARRKGGGVG | 0.6384 ± 0.0024 |

| Sequence | protein stability index |
| --- | --- |
| VGRGWSSGGGGD | 0.682 ± 0.023 |
| VGRSRNGAQSNR | 0.65 ± 0.015 |
| VGSAENQHTGRM | 0.678 ± 0.018 |
| VGSSRWRHVGRR | 0.6742 ± 0.0063 |
| VGSVWGDCLGYL | 0.701 ± 0.049 |
| VGTPPSEVGVLA | 0.628 ± 0.035 |
| VGVLLGPVWFSV | 0.684 ± 0.042 |
| VGVPAGQRRLAS | 0.718 ± 0.089 |
| VGVRCCPRLRFG | 0.695 ± 0.061 |
| VGVSEVGRGWAT | 0.71 ± 0.062 |
| VGVSFSFGSIFL | 0.687 ± 0.022 |
| VGVWAGVVLLGG | 0.825 ± 0.18 |
| VGWQGRWWLWGG | 0.568 ± 0.03 |
| VGWSWTSWTKGD | 0.661 ± 0.021 |
| VHAGVLTMADPT | 0.653 ± 0.05 |
| VHIVTLGGVLSF | 0.608 ± 0.0074 |
| VHRRRVSVGGGV | 0.69044 ± 0.00032 |
| VIACTFLSCSFS | 0.531 ± 0.02 |
| VIGEWWPVSGQH | 0.718 ± 0.014 |
| VIISDPNKDTRL | 0.645 ± 0.066 |
| VILTAISPAFSV | 0.647 ± 0.013 |
| VIQCIGANGAII | 0.645 ± 0.052 |
| VIRQVKFDRKCS | 0.681 ± 0.068 |

| Sequence | protein stability index |
| --- | --- |
| VISKIAIKAKER | 0.665 ± 0.047 |
| VKIYPSHGKVRD | 0.6901 ± 0.00096 |
| VKKVSSVGGREG | 0.643 ± 0.1 |
| VKLEEKNTINKV | 0.668 ± 0.1 |
| VKSGSTALRVNS | 0.607 ± 0.051 |
| VKSQRISVMIKK | 0.689 ± 0.022 |
| VLCCFLFGFLLV | 0.576 ± 0.011 |
| VLDFRGELGLLG | 0.699 ± 0.025 |
| VLEVLKTGKKIM | 0.692 ± 0.032 |
| VLGGRWDGVGGV | 0.661 ± 0.064 |
| VLGLGVVACWAV | 0.569 ± 0.013 |
| VLGRRGLVWKRV | 0.5993 ± 0.0033 |
| VLHFIFLCRCPV | 0.497 ± 0.011 |
| VLICGLNYLSLC | 0.64 ± 0.022 |
| VLIEWKGSREKY | 0.824 ± 0.21 |
| VLIRRLPFTSYL | 0.6365 ± 0.0034 |
| VLKGIVKQTRRG | 0.685 ± 0.058 |
| VLKRYILRNEKD | 0.697 ± 0.027 |
| VLLARVRRSSDS | 0.649 ± 0.093 |
| VLLGFSDYLRVT | 0.698 ± 0.079 |
| VLLGTVRCCFLG | 0.556 ± 0.022 |
| VLLLRPTPPLFH | 0.663 ± 0.046 |
